B1: Nb80-YFP1 (VHH)
VHH: QVQLQESGGGLVQAGGSLRLSCAASGSIFSINTMGWYRQAPGKQRELVAAIHSGGSTNYANSVKGRFTISRDNAANTVYLQMNSLKPEDTAVYYCNVKDYGAVLYEYDYWGQGTQVTVSS
notes: Nanobody Nb80 against the β2-adrenergic receptor; The reverse PCR primer appears to encode a His6 stretch at the C-terminus of Nb80, ahead of YFP1 (surmised from the primer); No PDB id is printed; also called Nb80-Y1; pcDNA3-Nb80-YFP1; source: HEK293, transiently transfected, in cells; not shown: split-YFP1 (N-terminal part of split-YFP), C-terminal, kept
B2: Nb1-LgBiT (VHH)
VHH: QVQLQESGGGLVQAGGSLRLSCAASGLRFSRNTMGWYRQAPGKQRELVAAIHSGGSTNYANSVKGRFTISRDNAANTVYLQMNSLKPEDTAVYYCNVKDWNNQPNGDDYWGQGTQVTVSS
notes: As the VHH of m3 (Nb1): Nb80 with randomised segments in CDR1 and CDR3; source: HEK293, transiently transfected, in cells; not shown: LgBiT (Large BiT of NanoLuc), C-terminal, kept
B3: Nb5-LgBiT (VHH)
VHH: QVQLQESGGGLVQAGGSLRLSCAASGCVPGPNTMGWYRQAPGKQRELVAAIHSGGSTNYANSVKGRFTISRDNAANTVYLQMNSLKPEDTAVYYCNVKDETRTRHQNDYWGQGTQVTVSS
notes: As the VHH of m5 (Nb5): Nb80 with randomised segments in CDR1 and CDR3; source: HEK293, transiently transfected, in cells; not shown: LgBiT (Large BiT of NanoLuc), C-terminal, kept
B4: Nb38-LgBiT (VHH)
VHH: QVQLQESGGGLVQAGGSLRLSCAASGHTMFSNTMGWYRQAPGKQRELVAAIHSGGSTNYANSVKGRFTISRDNAANTVYLQMNSLKPEDTAVYYCNVKDFLGLIHFRDYWGQGTQVTVSS
notes: As the VHH of m7 (Nb38): Nb80 with randomised segments in CDR1 and CDR3; source: HEK293, transiently transfected, in cells; not shown: LgBiT (Large BiT of NanoLuc), C-terminal, kept
B5: Nb1-YFP1 (VHH)
VHH: B2 VHH
notes: As the VHH of m1 (Nb80) with randomised segments in CDR1 and CDR3; Clone from the synthetically randomised Nb80 library; also called Nb1-Y1; source: HEK293, transiently transfected, in cells; not shown: split-YFP1 (N-terminal part of split-YFP), C-terminal, kept
B6: Nb5-YFP1 (VHH)
VHH: B3 VHH
notes: As the VHH of m1 (Nb80) with randomised segments in CDR1 and CDR3; Clone from the synthetically randomised Nb80 library; also called Nb5-Y1; source: HEK293, transiently transfected, in cells; not shown: split-YFP1 (N-terminal part of split-YFP), C-terminal, kept
B7: Nb38-YFP1 (VHH)
VHH: B4 VHH
notes: As the VHH of m1 (Nb80) with randomised segments in CDR1 and CDR3; Clone from the synthetically randomised Nb80 library; also called Nb38-Y1; source: HEK293, transiently transfected, in cells; not shown: split-YFP1 (N-terminal part of split-YFP), C-terminal, kept
B8: Nb80-LgBiT (VHH)
VHH: B1 VHH
notes: As the VHH of m1 (Nb80); Nb80 was moved from pcDNA3-Nb80-YFP1 into pcDNA3-CCR7-LgBiT by HindIII and ClaI, followed by site-directed mutagenesis at the junction; A Gly/Ser linker before LgBiT is surmised from the primers; also called pcDNA3-Nb80-LgBiT; source: HEK293, transiently transfected, in cells; not shown: LgBiT (Large BiT of NanoLuc), C-terminal, kept

What was measured:
Conditions in all cases: partners not purified
[1] = target: T1, β2AR-SmBiT (UniProt P07550); test: split reporter (BiFC, NanoBiT); G-protein competition assay based on split-luciferase complementation; HEK293 cells co-expressing GPCR-SmBiT, LgBiT-mini-Gαi and Nb-YFP1 or pcDNA3 (1:1:1), stimulated with 10 µM isoproterenol or 1.5 µg/mL CCL19; fold increase in luminescence over baseline
T1 construct: β2-adrenergic receptor; also called pBiT2.1-C-β2AR-SmBiT; source: HEK293, transiently transfected, in cells; not shown: SmBiT (Small BiT of NanoLuc), C-terminal, kept

[2] = target: T2, β2AR-YFP2 (human, UniProt P07550); test: split reporter (BiFC, NanoBiT); BiFC read by flow cytometry; HEK293 cells co-expressing Nb-YFP1 and GPCR-YFP2, stimulated 20 min with 10 µM isoproterenol or 0.5 µg/mL CCL19, fixed in 4% formaldehyde
T2 construct: also called β2-adrenergic receptor; ADRB2; source: HEK293, transiently transfected, in cells; not shown: split-YFP2, C-terminal, kept

[3] = target: T3, CCR7-SmBiT (Homo sapiens, UniProt P32248); test: split reporter (BiFC, NanoBiT); split-luciferase complementation; HEK293 cells co-expressing GPCR-SmBiT and Nb-LgBiT (plasmid ratio 1:1), coelenterazine H 5 µM, luminescence before and after 10 µM isoproterenol, 1.5 µg/mL CCL19 or PBS
T3 construct: Chemokine receptor CCR7, human; amplified from pcDNA3-CCR7-HA and ligated to SmBiT amplified from pAAVS1P-iCLHN; A Gly/Ser linker between CCR7 and SmBiT is surmised from the primer; also called pcDNA3-CCR7-SmBiT; pBiT2.1-C-CCR7-SmBiT; source: HEK293, transiently transfected, in cells; not shown: SmBiT (Small BiT of NanoLuc), C-terminal, kept
T3 sequence (P32248 25-378): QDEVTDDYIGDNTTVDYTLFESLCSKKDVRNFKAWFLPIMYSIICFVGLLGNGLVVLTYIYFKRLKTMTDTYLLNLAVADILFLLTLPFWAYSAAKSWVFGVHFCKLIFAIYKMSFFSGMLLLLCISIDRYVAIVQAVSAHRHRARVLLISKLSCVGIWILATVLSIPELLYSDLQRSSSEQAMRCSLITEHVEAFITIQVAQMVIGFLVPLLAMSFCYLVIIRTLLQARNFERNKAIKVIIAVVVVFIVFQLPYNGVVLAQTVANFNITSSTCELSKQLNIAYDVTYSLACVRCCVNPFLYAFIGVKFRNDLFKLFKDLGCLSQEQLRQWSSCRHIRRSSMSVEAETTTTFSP

[4] = target: T4, CCR7-YFP2 (Homo sapiens, UniProt P32248); test: split reporter (BiFC, NanoBiT); BiFC read by confocal microscopy; HEK293 cells stably expressing CCR7-YFP2, transiently transfected with Nb-YFP1, unstimulated or stimulated with 0.5 µg/mL CCL19, fixed
T4 construct: Chemokine receptor CCR7, human; amplified by PCR and subcloned into the split-YFP2 BiFC vector; also called CC chemokine receptor 7; CCR7-Y2; source: HEK293, transiently or stably transfected, in cells; not shown: split-YFP2, C-terminal, kept
T4 sequence (P32248 25-378): as above

[5] = target: T1, β2AR-SmBiT; test: split reporter (BiFC, NanoBiT); split-luciferase complementation; HEK293 cells co-expressing GPCR-SmBiT and Nb-LgBiT (plasmid ratio 1:1), coelenterazine H 5 µM, luminescence before and after 10 µM isoproterenol, 1.5 µg/mL CCL19 or PBS

Row | Binder | binding result [3] | binding result [4] | further results
1 | B1 | – | – | binding result [1]: binds; binding result [2]: binds
2 | B2 | binds | – | –
3 | B3 | binds | – | –
4 | B4 | binds | – | –
5 | B5 | – | binds | –
6 | B6 | – | binds | –
7 | B7 | – | binds | –
8 | B8 | – | – | binding result [5]: binds
